The record followed here is patent US20050106141A1 (PROCTER AND GAMBLE, published 2005).

One assay deals with T1, LexA BD-HRt (mouse, UniProt P0A7C2 1-202; Q61645 490-1182).
T1 construct: domain: Lex A DNA BD;range 490-1182; also called BD-HRt(mouse); Lex A DNA BD-HRt
T1 sequence (looked up): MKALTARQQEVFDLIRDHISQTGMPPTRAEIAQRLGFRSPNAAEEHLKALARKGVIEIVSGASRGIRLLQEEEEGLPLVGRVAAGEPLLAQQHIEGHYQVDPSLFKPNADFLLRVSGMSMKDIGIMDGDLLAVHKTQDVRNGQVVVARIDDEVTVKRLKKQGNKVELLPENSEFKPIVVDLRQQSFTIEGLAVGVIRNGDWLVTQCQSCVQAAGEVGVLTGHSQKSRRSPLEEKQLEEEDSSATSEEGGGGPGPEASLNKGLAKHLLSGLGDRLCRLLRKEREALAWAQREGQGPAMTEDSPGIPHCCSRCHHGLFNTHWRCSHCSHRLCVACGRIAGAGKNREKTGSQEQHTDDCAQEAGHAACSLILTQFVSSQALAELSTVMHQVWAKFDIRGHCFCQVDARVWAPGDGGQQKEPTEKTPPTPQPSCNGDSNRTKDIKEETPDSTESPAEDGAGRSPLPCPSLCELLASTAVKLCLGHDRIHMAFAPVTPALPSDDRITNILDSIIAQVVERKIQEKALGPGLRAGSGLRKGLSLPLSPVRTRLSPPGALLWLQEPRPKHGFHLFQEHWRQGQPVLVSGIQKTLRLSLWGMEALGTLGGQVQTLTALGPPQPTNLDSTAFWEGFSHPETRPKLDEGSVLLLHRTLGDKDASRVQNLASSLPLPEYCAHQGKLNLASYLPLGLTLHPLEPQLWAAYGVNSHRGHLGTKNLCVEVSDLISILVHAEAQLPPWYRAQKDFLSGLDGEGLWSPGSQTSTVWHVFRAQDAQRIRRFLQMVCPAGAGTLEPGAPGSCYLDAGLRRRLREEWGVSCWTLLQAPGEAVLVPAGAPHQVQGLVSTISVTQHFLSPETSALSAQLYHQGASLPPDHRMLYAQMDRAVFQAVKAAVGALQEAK
Put plainly: yeast two-hybrid library screen; number of positive clones with this identity.

For a further assay, the target named is T2, AD-HRt(mouse) (mouse, UniProt Q61645 490-1182).
T2 sequence (looked up): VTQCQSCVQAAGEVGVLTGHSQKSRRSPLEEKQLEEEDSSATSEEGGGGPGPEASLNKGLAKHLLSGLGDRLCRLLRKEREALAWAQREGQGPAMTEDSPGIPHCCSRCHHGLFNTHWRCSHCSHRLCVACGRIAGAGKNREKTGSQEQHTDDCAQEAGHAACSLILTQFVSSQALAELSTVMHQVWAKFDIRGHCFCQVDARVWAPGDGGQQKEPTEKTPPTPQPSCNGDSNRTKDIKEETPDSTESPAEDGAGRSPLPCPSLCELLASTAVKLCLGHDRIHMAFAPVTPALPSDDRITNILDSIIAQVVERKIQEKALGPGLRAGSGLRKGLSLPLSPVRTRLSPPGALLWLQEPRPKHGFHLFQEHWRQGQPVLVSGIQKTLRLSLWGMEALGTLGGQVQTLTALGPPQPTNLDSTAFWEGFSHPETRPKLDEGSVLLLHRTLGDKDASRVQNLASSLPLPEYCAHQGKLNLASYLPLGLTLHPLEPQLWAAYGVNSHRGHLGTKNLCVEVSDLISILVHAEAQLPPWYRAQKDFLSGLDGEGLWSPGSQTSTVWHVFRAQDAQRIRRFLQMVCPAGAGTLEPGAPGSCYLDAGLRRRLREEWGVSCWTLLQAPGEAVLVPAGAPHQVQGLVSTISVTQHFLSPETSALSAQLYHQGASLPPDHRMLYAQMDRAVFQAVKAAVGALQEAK
Put plainly: cell-based or functional assay.

A further assay addresses AD-TRβ (UniProt P04386 768-881). Put plainly: cell-based or functional assay.

A value given as a limit tells only on which side of the number the result lay.

Sequence of AD-TRβ (P04386 768-881): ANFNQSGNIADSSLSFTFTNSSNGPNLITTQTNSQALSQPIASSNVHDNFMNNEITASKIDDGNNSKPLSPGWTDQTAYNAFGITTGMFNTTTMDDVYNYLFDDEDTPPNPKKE
Excerpt for LexA BD-HRt: Clontech Human Keratinocyte GAL4 cDNA library (complexity 2.5×10⁶) in pACT2 vector was used used to screen for HRt interacting proteins. A Leu⁻, Trp⁻ yeast strain with HIS3 and LACZ reporters for yeasts two hybrid interaction (strain L41) was first transformed with LexA BD-HRt palsmid) for Trp⁺ phenotype. The resulting L41/LexA BD-HR transformant was screened to ensure expression of LexA BD-HRt protein and also for lack of auto activation of the reporter genes HIS3 and LACZ. This strain was transformed with Keratinocyte AD-cDNA library and plated on Trp⁻Leu⁻His⁻ plate to select for clones with positive interaction. Colonies that appeared on selsctive plates were subsequently tested for LACZ expression on X-GAL plates. […] AD-plasmid was rescued from the 90 clones and retested for HRt bait dependance. […] The positive clones are expected to contain an AD-IP (interacting partner) that interacts with BD-HRt.

B1: Homo Sapiens Ubiquitous Receptor (receptor, UniProt P55055 1-460, looked up, not shown: large carriers)
chain: MSSPTTSSLDTPLPGNGPPQPGAPSSSPTVKEEGPEPWPGGPDPDVPGTDEASSACSTDWVIPDPEEEPERKRKKGPAPKMLGHELCRVCGDKASGFHYNVLSCEGCKGFFRRSVVRGGARRYACRGGGTCQMDAFMRRKCQQCRLRKCKEAGMREQCVLSEEQIRKKKIRKQQQESQSQSQSPVGPQGSSSSASGPGASPGGSEAGSQGSGEGEGVQLTAAQELMIQQLVAAQLQCNKRSFSDQPKVTPWPLGADPQSRDARQQRFAHFTELAIISVQEIVDFAKQVPGFLQLGREDQIALLKASTIEIMLLETARRYNHETECITFLKDFTYSKDDFHRAGLQVEFINPIFEFSRAMRRLGLDDAEYALLIAINIFSADRPNVQEPGRVEALQQPYVEALLSYTRIKRPQDQLRFPRMLMKLVSLRTLSSVHSEQVFALRLQDKKLPPLLSEIWDVHE
notes: Prey clone; also called Oxysterols Receptor LXR-Beta; LXR
In the assay with LexA BD-HRt, B1 registered a Hits of 14.

B2: Homo Sapiens Similar to Stromal Antigen 2 (other, UniProt Q8N3U4 1-1231, looked up, not shown: large carriers)
chain: MIAAPEIPTDFNLLQESETHFSSDTDFEDIEGKNQKQGKGKTCKKGKKGPAEKGKGGNGGGKPPSGPNRMNGHHQQNGVENMMLFEVVKMGKSAMQSVVDDWIESYKHDRDIALLDLINFFIQCSGCKGVVTAEMFRHMQNSEIIRKMTEEFDEDSGDYPLTMAGPQWKKFKSSFCEFIGVLVRQCQYSIIYDEYMMDTVISLLTGLSDSQVRAFRHTSTLAAMKLMTALVNVALNLSINMDNTQRQYEAERNKMIGKRANERLELLLQKRKELQENQDEIENMMNAIFKGVFVHRYRDAIAEIRAICIEEIGIWMKMYSDAFLNDSYLKYVGWTMHDKQGEVRLKCLTALQGLYYNKELNSKLELFTSRFKDRIVSMTLDKEYDVAVQAIKLLTLVLQSSEEVLTAEDCENVYHLVYSAHRPVAVAAGEFLYKKLFSRRDPEEDGMMKRRGRQGPNANLVKTLVFFFLESELHEHAAYLVDSMWDCATELLKDWECMNSLLLEEPLSGEEALTDRQESALIEIMLCTIRQAAECHPPVGRGTGKRVLTAKEKKTQLDDRTKITELFAVALPQLLAKYSVDAEKVTNLLQLPQYFDLEIYTTGRLEKHLDALLRQIRNIVEKHTDTDVLEACSKTYHALCNEEFTIFNRVDISRSQLIDELADKFNRLLEDFLQEGEEPDEDDAYQVLSTLKRITAFHNAHDLSKWDLFACNYKLLKTGIENGDMPEQIVIHALQCTHYVILWQLAKITESSSTKEDLLRLKKQMRVFCQICQHYLTNVNTTVKEQAFTILCDILMIFSHQIMSGGRDMLEPLVYTPDSSLQSELLSFILDHVFIEQDDDNNSADGQQEDEASKIEALHKRRNLLAAFCKLIVYTVVEMNTAADIFKQYMKYYNDYGDIIKETMSKTRQIDKIQCAKTLILSLQQLFNEMIQENGYNFDRSSSTFSGIKELARRFALTFGLDQLKTREAIAMLHKDGIEFAFKEPNPQGESHPPLNLAFLDILSEFSSKLLRQDKRTVYVYLEKFMTFQMSLRREDVWLPLMSYRNSLLAGGDDDTMSVISGISSRGSTVRSKKSKPSTGKRKVVEGMQLSLTEESSSSDSMWLSREQTLHTPVMMQTPQLTSTIMREPKRLRPEDSFMSVYPMQTEHHQTPLDYNRRGTSLMEDDEEPIVEDVMMSSEGRIEDLNEGMDFDTMDIDLPPSKNRRERTELKPDFFDPASIMDESVLGVSMF
notes: Prey clone; also called AD-IP; BC001765
Consider B2, for which, in the assay with LexA BD-HRt, the Hits came out at 4.

B3: Homo Sapiens DEAD (Asp-Glu-Ala-Asp) box polypeptide 3 (enzyme, UniProt O00571 1-662, looked up, not shown: large carriers)
chain: MSHVAVENALGLDQQFAGLDLNSSDNQSGGSTASKGRYIPPHLRNREATKGFYDKDSSGWSSSKDKDAYSSFGSRSDSRGKSSFFSDRGSGSRGRFDDRGRSDYDGIGSRGDRSGFGKFERGGNSRWCDKSDEDDWSKPLPPSERLEQELFSGGNTGINFEKYDDIPVEATGNNCPPHIESFSDVEMGEIIMGNIELTRYTRPTPVQKHAIPIIKEKRDLMACAQTGSGKTAAFLLPILSQIYSDGPGEALRAMKENGRYGRRKQYPISLVLAPTRELAVQIYEEARKFSYRSRVRPCVVYGGADIGQQIRDLERGCHLLVATPGRLVDMMERGKIGLDFCKYLVLDEADRMLDMGFEPQIRRIVEQDTMPPKGVRHTMMFSATFPKEIQMLARDFLDEYIFLAVGRVGSTSENITQKVVWVEESDKRSFLLDLLNATGKDSLTLVFVETKKGADSLEDFLYHEGYACTSIHGDRSQRDREEALHQFRSGKSPILVATAVAARGLDISNVKHVINFDLPSDIEEYVHRIGRTGRVGNLGLATSFFNERNINITKDLLDLLVEAKQEVPSWLENMAYEHHYKGSSRGRSKSSRFSGGFGARDYRQSSGASSSSFSSSRASSSRSGGGGHGSSRGFGGGGYGGFYNSDGYGGNYNSQGVDWWGN
notes: Prey clone; extent of the clone unknown; also called Homo Sapiens DEAD/H (Asp-Glu-Ala-Asp/His) Box Polypeptide 3; AD-IP
The molecule B3 yielded a Hits with LexA BD-HRt of 2.

B4: BD-VDR(mouse) (receptor, UniProt P04386 1-147, looked up)
chain: MKLLSSIEQACDICRLKKLKCSKEKPKCAKCLKNNWECRYSPKTKRSPLTRAHLTEVESRLERLEQLFLLIFPREDLDMILKMDSLQDIKALLTGLFVQDNVNKDAVTDRLASVETDMPLTLRQHRISATSSSEESSNKGQRQLTVSMEAMAASTSLPDPGDFDRNVPRICGVCGDRATGFHFNAMTCEGCKGFFRRSMKRKALFTCPFNGDCRITKDNRRHCQACRLKRCVDIGMMKEFILTDEEVQRKREMIMKRKEEEALKDSLRPKLSEEQQHIIAILLDAHHKTYDPTYADFRDFRPPIRADVSTGSYSPRPTLSFSGDSSSNSDLYTPSLDMMEPASFSTMDLNEEGSDDPSVTLDLSPLSMLPHLADLVSYSIQKVIGFAKMIPGFRDLTSDDQIVLLKSSAIEVIMLRSNQSFTLDDMSWDCGSQDYKYDITDVSRAGHTLELIEPLIKFQVGLKKLNLHEEEHVLLMAICIVSPDRPGVQDAKLVEAIQDRLSNTLQTYIRCRHPPPGSHQLYAKMIQKLADLRSLNEEHSKQYRSLSFQPENSMKLTPLVLEVFGNEIS
On to B4, for which, in the assay with AD-HRt(mouse), the “relative alpha-galactosidase activity (yeast two-hybrid reporter, assay of example 3) with 1alpha, 25-dihydroxy cholecalciferol (25 DHC) at sub-micromolar concentrations” value was over 3 fold and the “relative alpha-galactosidase activity (yeast two-hybrid reporter, assay of example 3) with 25-hydroxy cholecalciferol (25 HC) at sub-micromolar concentrations” value is over 3 fold. The “yeast two-hybrid reporter with 25 HC” value with AD-TRβ was about 2 fold.

B5: Homo Sapiens Protein Inhibitor of Activated STAT-1 (PIAS1) (other, UniProt O75925 1-651, looked up, not shown: large carriers)
chain: MADSAELKQMVMSLRVSELQVLLGYAGRNKHGRKHELLTKALHLLKAGCSPAVQMKIKELYRRRFPQKIMTPADLSIPNVHSSPMPATLSPSTIPQLTYDGHPASSPLLPVSLLGPKHELELPHLTSALHPVHPDIKLQKLPFYDLLDELIKPTSLASDNSQRFRETCFAFALTPQQVQQISSSMDISGTKCDFTVQVQLRFCLSETSCPQEDHFPPNLCVKVNTKPCSLPGYLPPTKNGVEPKRPSRPINITSLVRLSTTVPNTIVVSWTAEIGRNYSMAVYLVKQLSSTVLLQRLRAKGIRNPDHSRALIKEKLTADPDSEIATTSLRVSLLCPLGKMRLTIPCRALTCSHLQCFDATLYIQMNEKKPTWVCPVCDKKAPYEHLIIDGLFMEILKYCTDCDEIQFKEDGTWAPMRSKKEVQEVSASYNGVDGCLSSTLEHQVASHHQSSNKNKKVEVIDLTIDSSSDEEEEEPSAKRTCPSLSPTSPLNNKGILSLPHQASPVSRTPSLPAVDTSYINTSLIQDYRHPFHMTPMPYDLQGLDFFPFLSGDNQHYNTSLLAAAAAAVSDDQDLLHSSRFFPYTSSQMFLDQLSAGGSTSLPTTNGSSSGSNSSLVSSNSLRESHSHTVTNRSSTDTASIFGIIPDIISLD
notes: Prey clone; extent of the clone unknown; also called AD-IP; AF167160
On to B5, for which, in the assay with LexA BD-HRt, the Hits was found to be 1.
